Experimental data reported in patent US20190359693A1.

Columns and labels:
[1] = biological target: HA of H10N7 A/Chick/Germany/N/49 (influenza A virus); test: cell-based or functional assay
[2] = biological target: HA of H1N1 A/New Caledonia/20/1999 (influenza A virus); test: cell-based or functional assay
[3] = biological target: HA of H1N1 A/Puerto Rico/8/34-MA (influenza A virus); test: cell-based or functional assay
[4] = biological target: HA of H3N2 A/Brisbane/10/2007 (influenza A virus); test: cell-based or functional assay
[5] = biological target: HA of H3N2 A/HK/1/68 (influenza A virus) (UniProt Q91MA7); test: cell-based or functional assay
[6] = biological target: HA of H4 A/WF/HK/MPA892/06 (influenza A virus); test: cell-based or functional assay
[7] = biological target: HA of H5N1 A/PR8 H5N1 HK97 (influenza A virus); test: cell-based or functional assay
[8] = biological target: HA of H5N1 A/Vietnam/1194/04 (influenza A virus); test: cell-based or functional assay
[9] = biological target: HA of H7N3 A/NIBRG/60 (A/mallard/NL/12/00) (influenza A virus); test: cell-based or functional assay
[10] = biological target: hemagglutinin (HA) of influenza A/Brisbane/10/07 (H3N2) (influenza A virus A/Brisbane/10/07 (H3N2)); test: cell-based or functional assay
[11] = biological target: hemagglutinin (HA) of influenza A/New York/107/03 (PR8) (influenza A virus A/New York/107/03 (PR8)); test: cell-based or functional assay
[12] = biological target: hemagglutinin (HA) of influenza A/chicken/Germany/n/49 (H10N7) (influenza A virus A/chicken/Germany/n/49 (H10N7)); test: cell-based or functional assay
[13] = biological target: hemagglutinin (HA) of influenza A/waterfowl/Hong Kong/MPA892/06 (H4) (influenza A virus A/waterfowl/Hong Kong/MPA892/06 (H4)); test: cell-based or functional assay
[14] = biological target: hemagglutinin (HA) of influenza virus B/Brisbane/60/08 (Victoria) (influenza B virus); test: cell-based or functional assay
[15] = biological target: hemagglutinin (HA) of influenza virus B/Florida/04/06 (Yamagata) (influenza B virus); test: cell-based or functional assay
[16] = biological target: hemagglutinin (HA) of influenza virus B/Harbin/7/94 (Yamagata) (influenza B virus); test: cell-based or functional assay
[17] = biological target: hemagglutinin (HA) of influenza virus B/Lee/40 (Old) (influenza B virus) (UniProt P03460); test: cell-based or functional assay
[18] = biological target: hemagglutinin (HA) of influenza virus B/Malaysia/2506/04 (Victoria) (influenza B virus); test: cell-based or functional assay
[19] = biological target: hemagglutinin (HA) of influenza virus B/Massachusetts/02/12 (Yamagata) (influenza B virus); test: cell-based or functional assay
[20] = biological target: hemagglutinin (HA) of influenza virus H10N7 A/Chick/Germany/N/49 (influenza A virus); test: cell-based or functional assay
[21] = biological target: hemagglutinin (HA) of influenza virus H11N9 A/Northern Pintail/MPC2085/07 (influenza A virus); test: cell-based or functional assay
[22] = biological target: hemagglutinin (HA) of influenza virus H14N5 A/Mallard/Astrakhan/263/1982 (influenza A virus); test: cell-based or functional assay
[23] = biological target: hemagglutinin (HA) of influenza virus H1N1 A/Brisbane/59/07 (influenza A virus); test: cell-based or functional assay
[24] = biological target: hemagglutinin (HA) of influenza virus H1N1 A/California/07/09 (influenza A virus); test: cell-based or functional assay
[25] = biological target: hemagglutinin (HA) of influenza virus H1N1 A/Christchurch/16/10 (influenza A virus); test: cell-based or functional assay
[26] = biological target: hemagglutinin (HA) of influenza virus H1N1 A/Mississippi/03/01 274H (influenza A virus); test: cell-based or functional assay
[27] = biological target: hemagglutinin (HA) of influenza virus H1N1 A/New Caledonia/20/99 (influenza A virus); test: cell-based or functional assay
[28] = biological target: hemagglutinin (HA) of influenza virus H1N1 A/Puerto Rico/8/34-MA (influenza A virus); test: cell-based or functional assay
[29] = biological target: hemagglutinin (HA) of influenza virus H1N1 A/Solomon Islands/3/2006 (IVR 145) (influenza A virus); test: cell-based or functional assay
[30] = biological target: hemagglutinin (HA) of influenza virus H1N1 A/WSN/33 (influenza A virus) (UniProt P03454); test: cell-based or functional assay
[31] = biological target: hemagglutinin (HA) of influenza virus H2N2 A/Guiyang/1/57 (influenza A virus); test: cell-based or functional assay
[32] = biological target: hemagglutinin (HA) of influenza virus H3N2 A/Aichi/2/68 (influenza A virus) (UniProt P03437); test: cell-based or functional assay
[33] = biological target: hemagglutinin (HA) of influenza virus H3N2 A/Brisbane/10/07 (influenza A virus); test: cell-based or functional assay
[34] = biological target: hemagglutinin (HA) of influenza virus H3N2 A/Fukui/45/04 (influenza A virus); test: cell-based or functional assay
[35] = biological target: hemagglutinin (HA) of influenza virus H3N2 A/HK/1/68-MA (influenza A virus); test: cell-based or functional assay
[36] = biological target: hemagglutinin (HA) of influenza virus H3N2 A/Hiroshima/52/05 (influenza A virus); test: cell-based or functional assay
[37] = biological target: hemagglutinin (HA) of influenza virus H3N2 A/Johannesburg/33/94 (influenza A virus); test: cell-based or functional assay
[38] = biological target: hemagglutinin (HA) of influenza virus H3N2 A/Panama/2007/99 (influenza A virus); test: cell-based or functional assay
[39] = biological target: hemagglutinin (HA) of influenza virus H3N2 A/Perth/16/09 (influenza A virus); test: cell-based or functional assay
[40] = biological target: hemagglutinin (HA) of influenza virus H3N2 A/Victoria/210/09 (influenza A virus); test: cell-based or functional assay
[41] = biological target: hemagglutinin (HA) of influenza virus H3N2 A/Wisconsin/67/05 (influenza A virus); test: cell-based or functional assay
[42] = biological target: hemagglutinin (HA) of influenza virus H4 A/WF/HK/MPA892/06 (influenza A virus); test: cell-based or functional assay
[43] = biological target: hemagglutinin (HA) of influenza virus H5N1 A/PR8 H5N1 HK97 (influenza A virus); test: cell-based or functional assay
[44] = biological target: hemagglutinin (HA) of influenza virus H5N1 A/Vietnam/1194/04 (influenza A virus); test: cell-based or functional assay
[45] = biological target: hemagglutinin (HA) of influenza virus H6N1 A/Eurasian Wigeon/MPG1884/09 (influenza A virus); test: cell-based or functional assay
[46] = biological target: hemagglutinin (HA) of influenza virus H7N3 A/NIBRG/60 (A/mallard/Netherlands/12/00) (influenza A virus); test: cell-based or functional assay
[47] = biological target: hemagglutinin (HA) of influenza virus H7N7 A/PR8 H7N7-NY (influenza A virus); test: cell-based or functional assay
[48] = biological target: hemagglutinin (HA) of influenza virus H7N9 A/Anhui/1/13 (influenza A virus); test: cell-based or functional assay
[49] = biological target: hemagglutinin (HA) of influenza virus H7N9 A/Shanghai/2/13 (influenza A virus); test: cell-based or functional assay
[50] = biological target: hemagglutinin (HA) of influenza virus H8N4 A/Eurasian Wigeon/MPH571/08 (influenza A virus); test: cell-based or functional assay
[51] = biological target: hemagglutinin (HA) of influenza virus H9N2 A/HK/466419/09 (influenza A virus); test: cell-based or functional assay
[52] = biological target: HA of B/Brisbane/60/2008 (Victoria) (influenza B virus); test: cell-based or functional assay
[53] = biological target: HA of B/Florida/04/2006 (Yamagata) (influenza B virus); test: cell-based or functional assay
[54] = biological target: HA of B/Harbin/7/94 (Yamagata) (influenza B virus); test: cell-based or functional assay
[55] = biological target: HA of B/Malaysia/2506/04 (Victoria) (influenza B virus); test: cell-based or functional assay
[56] = biological target: HA of B/Florida/04/2006 (Yamagata) (influenza B virus); test: AlphaLISA competition vs CR8033

B1: SD1073 (VHH)
VHH: EVQLVESGGGLVQAGGSLRLSCAASGSAFSIAAMGWYRQAPGKQRELVATITTGGSTNYADSVKGRFTISRDNSKNTAYLQMNSLKPEDTAVYYCTAKSVVAETFGDLYNYWGQGTQVTVSS
VNA titer [1]: 317 nM | VNA titer [2]: 98.9 nM | VNA titer [3]: 89.6 nM | VNA titer [4]: > 1000 nM | VNA titer [5]: > 1000 nM | VNA titer [6]: > 1000 nM | VNA titer [7]: 179 nM | VNA titer [8]: 224 nM | VNA titer [9]: 135 nM

B2: SD1069 (VHH)
VHH: EVQLVESGGGLVQAGDSLRLSCAASGPTFGMSAMGWFRQAPGKEREFVAAISGLGNPNYSDDVKGRFTISRENGRNTVYLQMNSLKPEDTAVYYCAQRKVYHVQGGDRPQAYDYWGQGTQVTVSS
VNA titer [1]: > 1000 nM | VNA titer [2]: 20.8 nM | VNA titer [3]: 12.8 nM | VNA titer [4]: > 1000 nM | VNA titer [5]: > 1000 nM | VNA titer [6]: > 1000 nM | VNA titer [7]: 242 nM | VNA titer [8]: 74 nM | VNA titer [9]: > 1000 nM

B3: SD3099 (VHH)
VHH: EVQLVESGGGLVQPGGSLRLSCAASGRTLSIYSMGWFRQAPGKEREFVATIGWNSGRTFYPDSVKGRFTISRDNSKNTLYLQMNSLRAEDTAVYYCAAAKGPLRLSSQADYWGQGTLVTVSS
VNA IC50 [10]: 3 nM | VNA IC50 [11]: 16 nM | VNA IC50 [12]: 5 nM | VNA IC50 [13]: 2 nM

B4: MD2501 (bispecific antibody)
chain: EVQLVESGGGLVQPGGSLRLSCAVSISIFDIYAMDWYRQAPGKQRDLVATSFRDGSTNYADSVKGRFTISRDNAKNTLYLQMNSLKPEDTAVYLCHVSLYRDPLGVAGGMGVYWGKGALVTVSSGGGGSGGGGSEVQLVESGGGLVQPGGSLRLSCAVSISIFDIYAMDWYRQAPGKQRDLVATSFRDGSTNYADSVKGRFTISRDNAKNTLYLQMNSLKPEDTAVYLCHVSLYRDPLGVAGGMGVYWGKGALVTVSSGGGGSGGGGSEVQLVESGGGLVQAGGSLKLSCAASGRTYAMGWFRQAPGKEREFVAHINALGTRTYYSDSVKGRFTISRDNAKNTEYLEMNNLKPEDTAVYYCTAQGQWRAAPVAVAAEYEFWGQGTQVTVSSGGGGSGGGGSEVQLVESGGGLVQPGGSLRLSCAATGFTLENKAIGWFRQTPGSEREGVLCISKSGSWTYYTDSMRGRFTISRDNAENTVYLQMDSLKPEDTAVYYCATTTAGGGLCWDGTTFSRLASSWGQGTQVTVSSGGGGSGGGGSEVQLVESGGGLVQPGGSLKLSCAASGFTFSTSWMYWLRQAPGKGLEWVSVINTDGGTYYADSVKDRFTISRDNAKDTLYLQMSSLKSEDTAVYYCAKDWGGPEPTRGQGTQVTVSS
average neutralization titer [14]: 5 nM | average neutralization titer [15]: 8.3 nM | average neutralization titer [16]: 4.3 nM | average neutralization titer [17]: 14.6 nM | average neutralization titer [18]: 8.8 nM | average neutralization titer [19]: 4 nM | average neutralization titer [20]: 14.9 nM | average neutralization titer [21]: 16 nM | average neutralization titer [22]: 15.6 nM | average neutralization titer [23]: 3 nM | average neutralization titer [24]: 3 nM | average neutralization titer [25]: 1.3 nM | average neutralization titer [26]: 4.9 nM | average neutralization titer [27]: 4.8 nM | average neutralization titer [28]: 8.5 nM | average neutralization titer [29]: 3.9 nM | average neutralization titer [30]: 2.9 nM | average neutralization titer [31]: 19.9 nM | average neutralization titer [32]: 12.6 nM | average neutralization titer [33]: 9.6 nM | average neutralization titer [34]: 21.2 nM | average neutralization titer [35]: 19 nM | average neutralization titer [36]: 6.5 nM | average neutralization titer [37]: 11.6 nM | average neutralization titer [38]: 18.1 nM | average neutralization titer [39]: 5.7 nM | average neutralization titer [40]: 5.8 nM | average neutralization titer [41]: 14.1 nM | average neutralization titer [42]: 3.9 nM | average neutralization titer [43]: 4.9 nM | average neutralization titer [44]: 6.5 nM | average neutralization titer [45]: 16 nM | average neutralization titer [46]: 13.8 nM | average neutralization titer [47]: 14 nM | average neutralization titer [48]: 73.8 nM | average neutralization titer [49]: 36.5 nM | average neutralization titer [50]: 16 nM | average neutralization titer [51]: 16 nM

B5: SD3097 (VHH)
VHH: EVQLLESGGGLVQPGGSLRLSCAASGRTYAMGWFRQAPGKEREFVAAINALGTRTYYADSVKGRFTISRDNSKNTLYLQMNSLRAEDTAVYYCTAQGQWRAAPVAVAAEYEFWGQGTLVTVSS
VNA IC50 [10]: 17 nM | VNA IC50 [11]: 8 nM | VNA IC50 [12]: 6 nM | VNA IC50 [13]: 6 nM

B6: MD2313 (bispecific antibody)
chain: EVQLVESGGGLVQAGDSLRISCAASGRTLSIYSMGWFRQAPGKEREFVATIGWNSGRTFYPDSLKGRFTISRDNARNTLYLQMNNLRPEDTAVYYCAAAKGPLRLSSQADYWGQGTQVTVSSGGGGSGGGGSEVQLVESGGGLVQAGDSLRISCAASGRTLSIYSMGWFRQAPGKEREFVATIGWNSGRTFYPDSLKGRFTISRDNARNTLYLQMNNLRPEDTAVYYCAAAKGPLRLSSQADYWGQGTQVTVSSGGGGSGGGGSEVQLVESGGGLVQPGGSLRLSCAATGFTLENKAIGWFRQTPGSEREGVLCISKSGSWTYYTDSMRGRFTISRDNAENTVYLQMDSLKPEDTAVYYCATTTAGGGLCWDGTTFSRLASSWGQGTQVTVSS
average neutralization titer [33]: 7.7 nM | average neutralization titer [44]: > 1000 nM | average neutralization titer [46]: 6.5 nM | average neutralization titer [48]: 21.7 nM

B7: SD1085 (VHH)
VHH: EVQLVESGGGLVQAGDSLRLSCVISGLSLDTYAVGWFRQAPGKEREGITCISSGHGMTYYADSVKGRFTVSTDNAKNTVYLQMNGLQPEDTARYYCATESRYYCSDNWPAPQRYIYWGQGTQVTVSS
VNA titer [52]: 40.7 nM | VNA titer [53]: 187 nM | VNA titer [54]: 631 nM | VNA titer [55]: 66.3 nM | pIC50 [56]: < 7
